In patent CN110407938A (BEIJING JOINN BIOTECHNOLOGY CO LTD, dated 2019):

Target: T1, TIM-3 (分析物, SPR analyte)
T1 construct: also called TIM-3抗原; 分析物(TIM-3)
Assay: SPR (Biacore T200), 25°C; antibody captured by anti-human IgG Fc on a CM5 chip, TIM-3 as analyte at 0-100 nM, 1:1 binding model

T1 sequence (Q8TDQ0 22-202): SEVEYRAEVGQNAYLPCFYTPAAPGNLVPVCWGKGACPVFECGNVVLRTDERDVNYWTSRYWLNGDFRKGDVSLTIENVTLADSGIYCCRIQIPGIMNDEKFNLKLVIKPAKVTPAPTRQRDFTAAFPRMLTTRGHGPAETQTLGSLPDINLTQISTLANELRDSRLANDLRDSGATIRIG

B1: 抗TIM-3抗体 (anti-TIM-3 monoclonal antibody of the invention) (antibody, V domains shown)
VH: QVQLQESGPGLVKPGETLSLTCAVSGGSFSRGGYYWNWIRQPPGKGLEWIGYIYYSGSTNYNPSLKSRVTISLDTSKNQFSLKLSSVTAEDTAVYYCARDHYTSSYNYDYWGQGTLVTVSS
VL: EIVLTQSPATLSLSPGERATLSCRASESVQSYIAWYQQKPGQAPRLLIYNASQRSTGIPARFSGSGSGTDFTLTISSLEPEDFAVYYCQQRFSWPPTFGQGTKLEIK
notes: The variable regions were cloned into the ZY-CDMO vector and expressed in CHO cells; The antibody was purified on Protein A, captured by an anti-human IgG Fc antibody and detected with goat anti-human-HRP, so it carries a human IgG Fc; It came from a phage antibody library; also called 抗TIM-3单克隆抗体; 本发明抗TIM-3抗体
  Kd: 6.41 nM
